Experimental data published in article PMC7866087, “Evaluation of Computationally Designed Peptides against TWEAK, a Cytokine of the Tumour Necrosis Factor Ligand Family” (International Journal of Molecular Sciences, 2021).

Assays:
[1] = tested on: TWEAK-Fn14 signalling pathway, BRV5 cells; assay: Cell-based screening of pooled peptides, gene expression microarray in TWEAK-stimulated BRV5 cells; design: species or system human; conditions: 6 h; for BIRC2 expression Z-Score / HSP90B1 expression Z-Score / IL6 expression Z-Score / JUN expression Z-Score / MAP4K4 expression Z-Score / MAPK14 expression Z-Score / NFKB2 expression Z-Score / TNFRSF12A expression Z-Score / TRAF2 expression Z-Score: BRV5 + TWEAK, normalized to NARS2
Description: To optimize resources and rationalize the analysis, we ran the screening by pooling the 50 peptides into six groups, i.e., Pool 1 to 6, containing […] peptides each and displaying similar MW (Supplementary Materials Table S1). We monitored the activity of pooled peptides on TWEAK-Fn14 signalling pathways following the design described in Material and Methods. BRV5 cells were cultured in the presence or absence of TWEAK and treated with peptides at different time points.
As a preliminary study, we performed an experiment with 435-P and BRV5 cells to assess the effect on the level of expression on the selected genes in cultures with or without TWEAK (Supplementary Materials Figure S2A). Negative controls without pool 1 peptides were included in the protocol to avoid unspecific biases in the inhibition ratio. To achieve optimal conditions to measure peptide activity, preventing peptide degradation in the culture medium, the effect of peptides was evaluated by priming cultures with peptide every hour (0–5 h), every two hours (0, 2, and 4 h) and every three hours (0 and 3 h). In these experiments, the housekeeping gene NARS2 was used to normalize gene expression.
(§1) Three different cell lines were used in this study: BRV5, MDA-MB 435 (435-P), and HT29. The BRV5 is a highly metastatic brain cell line, obtained in one of our laboratories by primary culture from a brain of a nude mouse inoculated with human 435-Br1 brain metastatic cells, as previously described and used as a model to test the peptides in cell cultures. […] The triple negative 435-P cell line is a useful human breast cancer model that expresses both epithelial and melanocytic markers, and was included as the parental cell from which 435-Br1 metastatic variant was initially originated (both cell lines kindly provided by Dr Fabra at IDIBELL Institute, Hospitalet de Llobregat, Spain). Finally, HT29 human colon carcinoma cells obtained from the European Type Culture Collection (ECACC 91072201) were used as a positive control of TWEAK dependent Fn14 over-expressing cells to evaluate TWEAK-Fn14 axis of brain metastatic variants.
Appropriate cell culture conditions were established as the controls needed in the expression of genes with and without peptides and with and without TWEAK activation, both as pools and individually (see Supplementary Materials Figure S2). The protocol started with the seeding of 125,000 cells/well in 500 µL of culture media supplemented with 10% fetal bovine serum (CM+FBS10%) in 24-well dishes for 24 h before removing FBS (CM-FBS). After overnight starvation in CM-FBS culture, different peptide treatment conditions (at final concentration of 450 µM) were established in the presence or absence of TWEAK (25 ng/mL final concentration) (Peprotech EC, Ltd., London, UK). Some cells were treated with peptides at a single, unique, initial dose (time 0) while other were treated with repeated doses to account for the effect cell-culture degradation. These include a repeated treatment every hour (i.e., […]), every two hours (time 0, 2, and 4) and every three hours (time 0 and 3)—see Supplementary Materials Figure S2 for diagrammatic depiction. At time 6 (after six hours) cells were lysed and RNA extracted for transcriptomic analyses (see next). Cell were culture for six hours as this was the time needed to achieve the highest upregulation of the TWEAK-Fn14 axis upon TWEAK treatment as shown in previous time-course RT-PCR experiments (see Figure 2).
RNA from cells was extracted 6 h after treatments by direct lysis on the well. The RNeasy Micro kit (Qiagen, Hilden, Germany) was used to isolate total RNA from cell lysate following manufacturer’s protocols including an additional step of digestion with DNase I (Qiagen, Hilden, Germany). Total RNA concentration was measured in a NanoDrop 1000 spectrophotometer (Thermo Scientific, Waltham, MA, USA). […]

[2] = tested on: HT29 cells, Fn14 gene expression; assay: Fn14 gene expression with TWEAK, HT29 (RT-PCR); assay type: cell-based, human; conditions: HT29, TWEAK 25 ng/ml
Description: (§2) Figure 1 Characterization TWEAK-dependent/not dependent cells. (A) Representative images of Fn14 expression (pink) in BRV5, 435-P and HT29 cells labelled by immunofluorescence. The protein has similar expression in BRV5 and the positive control HT29 cells, and less expressed in 435-P. DAPI (blue) was used for nucleus identification. (B) RT-PCR analysis to quantify Fn14 gene expression of cells cultured in the presence (dark green) or absence (light green) of TWEAK (25 ng/mL) at 48 h. Up-regulation of Fn14 is observed only in HT29 and BRV5 cells. Bars and error bars represent the average and standard deviation as calculated from three replicates respectively. P values represented as: * - significant (Pvalue: 0.01 to 0.05) and **- very-significant (Pvalue: 0.001 to 0.01).
(§3) Since the transcriptional activation of Fn14 expression can be induced in cancer cells by the TWEAK-Fn14 interaction, either in a paracrine or autocrine manner, we investigated whether TWEAK transactivates Fn14 (TNFR2F12A) in BRV5 brain metastatic cells. We primed cells with TWEAK and analysed TNFR2F12A gene expression including in the analysis 435-Br1 cells, the first generation of brain metastatic cells BRV5.
as §1, with “Finally, HT29 human colon carcinoma cells obtained from the European Type Culture Collection (ECACC 91072201) were used as a positive control of TWEAK dependent Fn14 over-expressing cells to evaluate TWEAK-Fn14 axis of brain metastatic variants.” left out

[3] = tested on: 435-P cells, TNFR2F12A gene expression; assay: Fn14 gene expression with TWEAK, 435-P (RT-PCR); assay type: cell-based, human; conditions: for Normalized level of expression of Fn14 gene: TWEAK 25 ng/ml
Description: as §2, §3, §1

[4] = tested on: 435-Br1 cells, TNFR2F12A gene expression; assay: Fn14 gene expression with TWEAK, 435-Br1 (RT-PCR); assay type: cell-based, human; conditions: for Normalized level of expression of Fn14 gene: 435-Br1, TWEAK 25 ng/ml
Description: as §2, §3, §1

[5] = tested on: BRV5 cells, Fn14 gene expression; assay: Fn14 gene expression with TWEAK, BRV5 (RT-PCR); assay type: cell-based, human; conditions: for Normalized level of expression of Fn14 gene: BRV5, TWEAK 25 ng/ml
Description: as §2, §3, §1

[6] = pools, BRV5 + TWEAK 25 ng/mL, 450 µM every hour

B1: tumour necrosis factor-like weak inducer of apoptosis (protein, UniProt O43508 94-249, looked up)
Tumor necrosis factor ligand …: SAPKGRKTRARRAIAAHYEVHPRPGQDGAQAGVDGTVSGWEEARINSSSPLRYNRQIGEFIVTRAGLYYLYCQVHFDEGKAVYLKLDLLVDGVLALRCLEEFSATAASSLGPQLRLCQVSGLLALRPGSSLRIRTLPWAHLKAAPFLTYFGLFQVH
regulation of probe genes by pooled peptides ([1]; BRV5 + TWEAK 25 ng/mL, peptides 450 µM every hour, versus T): higher level of expression overall when compared to untreated and unstimulated cells | downstream activation of MAP4K4 (NIK), TRAF2, and BIRC2 (IAP2) ([1]; TWEAK, BRV5): occurred at 6 h in BRV5 cells | BIRC2 mRNA expression (normalized to NARS2) [1, 6]: 1.448 | HSP90B1 mRNA expression (normalized to NARS2) [1, 6]: 8.392 | IL6 mRNA expression (normalized to NARS2) [1, 6]: 0.0007818 | JUN mRNA expression (normalized to NARS2) [1, 6]: 0.04566 | MAP4K4 mRNA expression (normalized to NARS2) [1, 6]: 0.7707 | MAPK14 mRNA expression (normalized to NARS2) [1, 6]: 0.5877 | NFKB2 mRNA expression (normalized to NARS2) [1, 6]: 0.193 | TNFRSF12A mRNA expression (normalized to NARS2) [1, 6]: 0.06934 | TRAF2 mRNA expression (normalized to NARS2) [1, 6]: 0.0999 | BIRC2 expression Z-Score ([1]; pools): 1.233 | HSP90B1 expression Z-Score ([1]; pools): -0.5008 | IL6 expression Z-Score ([1]; pools): -1.234 | JUN expression Z-Score ([1]; pools): -1.012 | MAP4K4 expression Z-Score ([1]; pools): -0.5276 | MAPK14 expression Z-Score ([1]; pools): 0.2377 | NFKB2 expression Z-Score ([1]; pools): -0.03742 | TNFRSF12A expression Z-Score ([1]; pools): -0.4905 | TRAF2 expression Z-Score ([1]; pools): 1.245 | BIRC2 expression Z-Score ([1]; pools, listed as T): 1.2334 | HSP90B1 expression Z-Score ([1]; pools, listed as T): -0.5008 | IL6 expression Z-Score ([1]; pools, listed as T): -1.2337 | JUN expression Z-Score ([1]; pools, listed as T): -1.0121 | MAP4K4 expression Z-Score ([1]; pools, listed as T): -0.5276 | MAPK14 expression Z-Score ([1]; pools, listed as T): 0.2377 | NFKB2 expression Z-Score ([1]; pools, listed as T): -0.0374 | TNFRSF12A expression Z-Score ([1]; pools, listed as T): -0.4905 | TRAF2 expression Z-Score ([1]; pools, listed as T): 1.2452 | Normalized level of expression of Fn14 gene ([2]; technical replicate 1): 0.1964 | Normalized level of expression of Fn14 gene ([2]; technical replicate 2): 0.2154 | Normalized level of expression of Fn14 gene ([2]; technical replicate 3): 0.2052 | TNFR2F12A gene expression ([3]; TWEAK 25 ng/mL, 48 h): decreased TNFR2F12A gene expression in 435-P cells with regard to controls (p = 0.0246) | Normalized level of expression of Fn14 gene ([3]; technical replicate 1): 0.1395 | Normalized level of expression of Fn14 gene ([3]; technical replicate 2): 0.1292 | Normalized level of expression of Fn14 gene ([3]; technical replicate 3): 0.1408 | Normalized level of expression of Fn14 gene ([4]; technical replicate 1): 0.1600 | Normalized level of expression of Fn14 gene ([4]; technical replicate 2): 0.1676 | Normalized level of expression of Fn14 gene ([4]; technical replicate 3): 0.1719 | TNFR2F12A gene expression ([4]; TWEAK 25 ng/mL, 48 h, 435-Br1): no differences were found | Normalized level of expression of Fn14 gene ([5]; technical replicate 1): 0.1340 | Normalized level of expression of Fn14 gene ([5]; technical replicate 2): 0.1202 | Normalized level of expression of Fn14 gene ([5]; technical replicate 3): 0.1441 | Fn14 transcriptional expression ([5]; TWEAK 25 ng/mL, 48 h, BRV5): significantly activated in BRV5 cells (p = 0.0031)
